These results are taken from patent publication US20220389113A1, “BINDING PROTEINS TO CUB DOMAIN-CONTAINING PROTEIN (CDCP1)” (COMMONWEALTH SCIENTIFIC AND INDUSTRIAL RESEARCH ORGANISATION, priority 2019, published 2022).

In test [1] the test system is TKCC05 cells and normal human pancreatic stellate cells. In words: Co-culture assay of TKCC05 cells and normal human pancreatic stellate cells. The test is classed as cell-based. The method, then: For survival assays, cells (5,000/well) were plated in 96-well plates and allowed to attach for 24 h. Cells were then treated for 24 h with 10D7 (5 μg/ml) or isotype control IgG (5 μg/ml) before addition of gemcitabine (0.02 to 500 nM) and incubation for another 72 h. In assays assessing the effect of cytotoxin-conjugated antibodies, cells were treated for 12 h with 10D7-MMAE, IgG-MMAE, 10D7 or IgG (0.0625 to 1.0 μg/ml) then washed before the media was replaced with standard growth medium for 72 h. The relative number of viable cells was then measured by adding the CellTiter AQueous One Solution Reagent to each well and measuring absorbance at 490 nm as described above. In co-culture assays, mKO2 expressing TKCC05 PDAC cells (2,000 cells/well) were co-cultured with GFP expressing normal human pancreatic stellate cells (2,000 cells/well) for 24 h in a 1:1 mixture of TKCC05 and hPSC growth medium before treatments with 10D7-MMAE, IgG-MMAE, 10D7 or IgG (0.0625 to 1.0 μg/ml), IgG or 10D7 (1 μg/ml) or PBS as above. Cells were imaged by wide-field fluorescence microscopy and the total area of confluence for each cell type was quantified by image analysis using Image J software.
The generated antibody-drug conjugate (ADC), 10D7-MMAE, has an average drug-antibody ratio (DAR) of 4.5 to 4.7, and retains the functional ability to induce phosphorylation of CDCP1 and Src (see Example 7). […]

The subject of test [2] is subcutaneous TKCC05 cells xenografts. In words: TKCC05 subcutaneous xenograft, MMAE-conjugated antibodies. The conditions noted are these: 5 mg/kg i.v. on day 27 and 41, in comparison with the other treatments. The test is classed as in vivo, mouse. The method, then:
Mouse experiments were approved by the University of Queensland Animal Ethics Committee. PDAC cells (2.5×10^6) were injected subcutaneously into the flanks of NOD.Cg-Prkdcscid Il2rgtm1Wjl/SzJ (NSG) mice (6-8 weeks; Jackson Laboratory, Bar Harbor, Me.). For assays assessing the impact of antibody 10D7 on xenograft growth, two weeks after PDAC cell inoculations, mice (n=6/group) were randomized and treated i.v. every four days with PBS, 10D7 (5 mg/kg) or IgG (5 mg/kg) until the end of the assay. For assays assessing whether 10D7 improves the efficacy of gemcitabine chemotherapy, four weeks after PDAC cell inoculations, mice were randomized and treated i.v. every four days with PBS (n=12), 10D7 (n=12, 5 mg/kg) or IgG (n=12, 5 mg/kg). Half of the mice in each of the three groups also received gemcitabine i.p. treatments (125 mg/kg/week). At the end of the assay tumours were harvested, weighed and processed for assessment of histology and CDCP1 expression by immunohistochemistry or western blot analysis. […] Tumour burden was monitored by calliper measurement and tumour volume calculated as previously described (Feldman J P, Goldwasser R, Mark S, Schwartz J (2009) Journal of Applied Quantitative Methods 4(4):455-462). […]
Finally, the inventors evaluated whether the PDAC targeting ability of antibody 10D7 can be harnessed to effectively deliver the cytotoxin MMAE to PDAC in vivo. […]

A further test concerns TKCC2.1 cells xenografts. In words: Pancreatic cancer subcutaneous xenograft, MMAE-labelled 10D7 and chimeric 10D7. As to conditions: 125 μg iv, treated twice.

Experimental for TKCC2.1 cells xenografts: Pancreatic cancer cells (TKCC2.1 cells, 1×10^6 cells) were grafted subcutaneously in NSG mice. After 4 weeks, mice were randomized into 5 groups (10 mice per group) and treated with: PBS (iv, 125 μl fortnightly), IgG-MMAE (iv, 125 μg diluted in 125 μl PBS), 10D7-MMAE (iv, 125 μg diluted in 125 μl PBS), Chim hu/mu-10D7-MMAE (iv, 125 μg diluted in 125 μl PBS) or Gemcitabine (ip, 100 mg/kg in PBS weekly).
Mice were euthanized when one ethical end point was reached (either tumour size or excessive signs of distress).

B1: 10D7-MMAE (conjugate)
VH: EVQLQQFGAELVKPGASVKISCKASGYSFSDFNIEWLKQSHGKSLEWIGDINPNYDSTNYNQKFKGRATLTVDKSSSTAYMEVRSLTSEDTAVYYCARLGYGYAMDYWGQGTSVTVSS
VL: NIVMTQSPQSMSMSVGERVTLSCKASENVGAYVSWFQQKPDQSPKLLILAASNRYTGVPARFIGSGSATDFTLTISSVQAEDLADYHCGQSYTYPYTFGGGTKLEIKRADAAPTVS
As for B1, in test [1] (CDCP1 expressing cells), the “response of TKCC05 cells” value is given as “very sensitive”. Besides, the “response of normal human pancreatic stellate cells” value in test [1] (CDCP1 non-expressing cells) is “unresponsive”. In addition, in test [2], the “survival of xenografted mice” value was “significantly extended survival” and the tumour growth result is on record as “markedly inhibited tumour growth”. In the test on TKCC2.1 cells xenografts, the “reduction of pancreatic tumour volume” value is “superior to gemcitabine” and the survival of mice entry was “prolonged”.
